In general, EC50 refers to the concentration that produces a half-maximal response. The low end stands for higher potency in that assay, the high end for lower potency in that assay. Usually EC50 (read off the curve) stands for the concentration giving half of the maximal effect. High values mean weaker potency, low ones greater potency. For orientation: Kd means the free concentration of one partner at which half of the binding sites on the other are occupied at equilibrium, for simple one-to-one binding.

Read-outs that look alike come from different tables or passages of the source. A value given as a limit tells only on which side of the number the result lay.

The source of these data is patent US20240010720A1 (IOMX THERAPEUTICS, published 2024).

The chains are these.
B4: human IGSF11 (VSIG3) on cells (receptor)
chain: LEVSESPGSIQVARGQPAVLPCTFTTSAALINLNVIWMVTPLSNANQPEQVILYQGGQMFDGAPRFHGRVGFTGTMPATNVSIFINNTQLSDTGTYQCLVNNLPDIGGRNIGVTGLTVLVPPSAPHCQIQGSQDIGSDVILLCSSEEGIPRPTYLWEKLDNTLKLPPTATQDQVQGTVTIRNISALSSGLYQCVASNAIGTSTCLLDLQVISPQPRNIGLIAGAIGTGAVIIIFCIALILGAFFYWRSKNKEEEEEEIPNEIREDDLPPKCSSAKAFHTEISSSDNNTLTSSNAYNSRYWSNNPKVHRNTESVSHFSDLGQSFSFHSGNANIPSIYANGTHLVPGQHKTLVVTANRGSSPQVMSRSNGSVSRKPRPPHTHSYTISHATLERIGAVPVMVPAQSRAGSLV

In assay [1] the target is T1, His-tagged extracellular domain (ECD) of human IGSF11 (VSIG3) (human, UniProt Q5DX21 23-241).
T1 construct: partly bought (SinoBiological 13094-H08H); also called IGSF11-HIS; HIS-IGSF11; not shown: HIS6 tag
T1 sequence: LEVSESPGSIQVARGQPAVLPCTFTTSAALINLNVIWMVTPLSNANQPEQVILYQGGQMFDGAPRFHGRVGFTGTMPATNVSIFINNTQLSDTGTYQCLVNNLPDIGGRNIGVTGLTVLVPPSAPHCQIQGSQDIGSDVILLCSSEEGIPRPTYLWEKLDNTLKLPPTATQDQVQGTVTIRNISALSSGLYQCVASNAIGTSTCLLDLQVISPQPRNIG
As to the kind of experiment: ELISA, IgG1. A general note: ELISA stands for enzyme-linked immunosorbent assay.

In assay [2] the target is T2, IGSF11 ECD fused to murine-Fc (human; mouse, UniProt Q5DX21 23-241).
T2 construct: also called Fc-fusion IGSF11 ECD; full-length ECD of IGSF11; not shown: murine Fc
T2 sequence: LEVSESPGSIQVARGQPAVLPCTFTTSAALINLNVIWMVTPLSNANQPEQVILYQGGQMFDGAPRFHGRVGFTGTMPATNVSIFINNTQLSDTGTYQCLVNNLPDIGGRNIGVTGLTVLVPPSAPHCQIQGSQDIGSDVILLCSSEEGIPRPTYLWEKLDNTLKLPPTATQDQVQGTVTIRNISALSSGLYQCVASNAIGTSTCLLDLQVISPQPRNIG
As to the kind of experiment: ELISA, IgG.

The target of assay [3] is T1, His-tagged extracellular domain (ECD) …. As to the kind of experiment: ELISA EC50 grade, IgG1.
The target of assay [4] is T2, IGSF11 ECD fused to murine-Fc. As to the kind of experiment: ELISA: IgG titrated on coated murine-Fc fusion of IGSF11 ECD; x axis IgG nM, y axis absorption per legend.
Text: Expi293 cells (ThermoFisher) were transiently transfected with DNA sequences encoding the applicable IGSF11 domain-mFc fusions according to the manufacturer's instructions, and cultured under conditions suitable to the IGSF11 domain fusion. Cell supernatants were harvested 5 days post transfection and the expressed Fc-protein purified via Protein A affinity chromatography (GE Healthcare). IGSF11 domain Fc-fusion proteins were re-buffered into PBS pH7.4. […] The surface was blocked with 2% (w/v) skim milk powder in PBST. After three wash cycles with PBST, a dilution series of IgG-format ABPs was transferred to the immobilized the Fc-fusion IGSF11 ECD or the IGSF11 domains and incubated for 1 h. After removing all unbound antibodies by 3 wash cycles with PBST, bound IgG ABPs were detected with a goat anti-human IgG antibody conjugated with horseradish peroxidase. After three wash cycles with PBST the ELISA was developed with TMB substrate.
Assay [5] concerns the target B4. As to the kind of experiment: FACS, DMS 273 cells. Background: A flow cytometer gives signals particle by particle.
Assay [6] has as its target T3, recombinant human IGSF11 (VSIG3) extracellular domain (ECD) (human, UniProt Q5DX21 23-241, biotinylated where captured on streptavidin).
T3 construct: also called biotinylated recombinant ECD-IGSF11; IGSF11 (ECD domain)
T3 sequence: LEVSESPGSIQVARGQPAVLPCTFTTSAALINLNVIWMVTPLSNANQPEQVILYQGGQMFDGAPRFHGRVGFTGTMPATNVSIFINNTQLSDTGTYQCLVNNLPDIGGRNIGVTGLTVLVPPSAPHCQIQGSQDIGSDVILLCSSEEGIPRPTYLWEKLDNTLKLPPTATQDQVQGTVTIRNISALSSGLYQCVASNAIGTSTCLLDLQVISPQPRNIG
As to the kind of experiment: SPR, IgG1. (Surface plasmon resonance follows binding to a sensor surface in real time, without labels.)

Assay [7] addresses T4, scFv-Fc-format of antibody A-015.
T4 construct: scFv genetically fused to mouse IgG2A Fc; also called anti-IGSF11 scFv-Fc (mouse IgG2A)
The experiment in a line: FACS on monocytes (CD14 gate) from PBMC of healthy volunteer A, labelled secondary antibody; x axis IGSF11 signal.

The target of assay [8] is B4. As to the kind of experiment: FACS, IgG1-format antibodies; DMS 273 cells (D) treated with IGSF11 siRNA (KD).
Assay [9] concerns the target B4. As to the kind of experiment: FACS, IgG1-format antibodies; M579-A2-luc cells (M) treated with IGSF11 siRNA (KD).
In assay [10] the target is T1, His-tagged extracellular domain (ECD) …. The experiment in a line: ELISA: IgG1-format antibody titrated on coated His-tagged IGSF11; x axis nM IgG, y axis absorbance per legend.
For assay [11], the target named is B4. The experiment in a line: FACS, IgG1-format antibodies; DMS 273 cells (D) treated with scrambled control siRNA (SC).
Assay [12] addresses B4. The experiment in a line: FACS, HEK cells expressing IGSF11.
Assay [13] has as its target B4. The experiment in a line: FACS, IgG1-format antibodies; CL-11 cells (C), a line that does not express IGSF11 (specificity control), scrambled control siRNA (SC).
Assay [14] deals with T1, His-tagged extracellular domain (ECD) …. As to the kind of experiment: blocking ELISA: antibody pre-incubated with His-tagged IGSF11 ECD, complexes added to immobilised VSIR-Fc; y axis % remaining IGSF11 binding to VSIR, x axis nM IgG per legend.
Assay [15] concerns the target T3, recombinant human IGSF11 (VSIG3) …. As to the kind of experiment: SPR, IgG1. This is another data set of the same source.
Assay [16] deals with B4. As to the kind of experiment: FACS, IgG1-format antibodies; CL-11 cells (C), a line that does not express IGSF11 (specificity control), IGSF11 siRNA (KD).
Assay [17] deals with B4. As to the kind of experiment: FACS, IgG1-format antibodies; M579-A2-luc cells (M) treated with scrambled control siRNA (SC).
Assay [18] concerns the target T1, His-tagged extracellular domain (ECD) …. As to the kind of experiment: blocking ELISA: antibody pre-incubated with His-tagged IGSF11 ECD, complexes added to immobilised VSIR-Fc; y axis % remaining IGSF11 binding to VSIR, x axis nM IgG per legend. This is another data set of the same source.

T4 sequence (VL, as listed by the source): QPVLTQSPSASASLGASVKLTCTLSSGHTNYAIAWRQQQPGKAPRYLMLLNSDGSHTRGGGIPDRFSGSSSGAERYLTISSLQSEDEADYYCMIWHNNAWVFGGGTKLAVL

B1: A-037 (IgG1 format) (antibody, V domains shown)
VH: QVQLVQSGAEVKKPGASVKVSCKASGYTFTGYYMHWVRQAPGQGLEWMGWINPNSGNTGYAQKFQGRVTMTRNTSISTAYMELSSLRSEDTAVYYCARGGQQQLVLDDYWGQGTLVTVSS
VL: NFMLTQPHSVSESPGKTVTISCTGSSGSIASNYVQWYQQRPGSAPTTVIYEDNQRPSGVPDRFSGSIDSSSNSASLTISGLKTEDEADYYCQSYDSSNQRVFGGGTKLTVL
notes: human IgG1 format
For B1, the binding result in [1] was “binds”.

B2: A-019 (IgG1 format) (antibody, V domains shown)
VH: QVQLVQSGAEVKKPGASVKVSCKASGYTFTGYYMHWVRQAPGQGLEWMGWINPNSGNTGYAQKFQGRVTMTRNTSISTAYMELSSLRSEDTAVYYCARGGQQQLVLDDYWGQGTLVTVSS
VL: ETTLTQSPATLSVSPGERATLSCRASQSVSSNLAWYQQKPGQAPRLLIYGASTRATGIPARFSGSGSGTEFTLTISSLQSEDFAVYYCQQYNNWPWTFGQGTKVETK
notes: human IgG1 format
For B2, in [1], the binding result is “binds”.

B3: A-024 (IgG1 format) (antibody, V domains shown)
VH: QMQLVQSGAEVKKPGSSVKVSCKASGGTFSSYAISWVRQAPGQGLEWMGWISAYNGNTNYAQKLQGRVTMTTDTSTSTAYMELRSLRSDDTAVYYCASLGSYGYTGAFDIWGQGTMATVSS
VL: QSALTQPASVSGSPGQSITISCTGTSSDVGGYNYVSWYQQHPGKAPKLMIYEVSNRPSGVSNRFSGSKSGNTASLTISGLQAEDEADYYCSSYTSSSTLVVFGGGTKLTVL
notes: also called A-024-like ABP
Turning to B3, the EC50 is less than 1 nM in [2], 0.02 to 0.05 nM in [3] and less than 10 nM in assay [5]. Moreover, in assay [4], the “EC50 (read off the curve)” value was approximately 0.4 nM. Also, the Kd in assay [6] was more than 500 nM.

Turning to B4, the binding result in assay [7] is reported as “binds”.

B5: B-002 (chain-swapped IgG1) (antibody, V domains shown)
VH: EVQLVESGGGLIQPGGSLRLSCAASGFTVSSNYMSWVRQAPGKGLEWVSVIYSGGSTYYADSVKGRFTISRDNSKNTLYLQMNSLRAEDTAVYYCARGNPYYYGDLQVNFDYWGQGTLVTVSS
VL: QAVVTQEPSLTVSPGGTVTLTCASSTGAVTSGYYPNWFQQKPGQAPRALIYSTSNKHSWTPARFSGSLLGGKAALTLSGVQPEDEAEYYCLLYYGGAWVFGGGTKLTVL
notes: human IgG1 format; also called B2
On to B5, for which the “percentage binding (FACS heat-map)” value in assay [8] was 8.68%; in assay [9], 2.77%; in assay [11], 80.1%; in assay [13], 3%; in assay [16] it was 4.54%; in [17], 70.7%. Besides, the “EC50 (read off the curve)” value in assay [10] was approximately 0.01 nM. Moreover, the EC50 in assay [12] is 10 to 50 nM; in assay [5], more than 50 nM. For the same molecule, in [14], the “IC50 (read off the curve)” value was approximately 4 nM. The Kd in [15] fell in the range of 100 to 250 nM.

B6: B-001 (chain-swapped IgG1) (antibody, V domains shown)
VH: EVQLLESGGGLIQPGGSLRLSCAVSGFTVSSNYMSWVRQAPGKGLEWVSVIYSGGSTYYADSVKGRFTISRDNSKNTLYLQMNSLRAEDTAVYYCARGNPYYYGDLQVNFDYWGQGTLVTVSS
VL: QAVVTQEPSLTVSPGGTVTLTCASSTGAVTSAYYPNWFQQKPGQAPRALIYSTSNKHSWTPARFSGSLLGGKAALTLSGVQPEDEADYYCLLYYGGAWVFGGGTKLTVL
notes: human IgG1 format; also called B1
For the molecule B6, the “IC50 (read off the curve)” value in [18] was approximately 2 nM. This molecule also returned a concentration for a half-maximal effect (EC50) in [12] of 10 to 50 nM. The dissociation constant Kd in assay [15] fell in the range of 250 to 500 nM.
